In IntAct's records for PubMed 29039417:

B1: Protein PTHB1 (Homo sapiens), Q3SYG4 (parent)
chain: MSLFKARDWWSTILGDKEEFDQGCLCLANVDNSGNGQDKIIVGSFMGYLRIFSPHPAKTGDGAQAEDLLLEVDLRDPVLQVEVGKFVSGTEMLHLAVLHSRKLCVYSVSGTLGNVEHGNQCQMKLMYEHNLQRTACNMTYGSFGGVKGRDLICIQSMDGMLMVFEQESYAFGRFLPGFLLPGPLAYSSRTDSFLTVSSCQQVESYKYQVLAFATDADKRQETEQQKLGSGKRLVVDWTLNIGEQALDICIVSFNQSASSVFVLGERNFFCLKDNGQIRFMKKLDWSPSCFLPYCSVSEGTINTLIGNHNNMLHIYQDVTLKWATQLPHIPVAVRVGCLHDLKGVIVTLSDDGHLQCSYLGTDPSLFQAPNVQSRELNYDELDVEMKELQKIIKDVNKSQGVWPMTEREDDLNVSVVVSPNFDSVSQATDVEVGTDLVPSVTVKVTLQNRVILQKAKLSVYVQPPLELTCDQFTFEFMTPDLTRTVSFSVYLKRSYTPSELEGNAVVSYSRPTDRNPDGIPRVIQCKFRLPLKLICLPGQPSKTASHKITIDTNKSPVSLLSLFPGFASQSDDDQVNVMGFHFLGGARITVLASKTSQRYRIQSEQFEDLWLITNELILRLQEYFEKQGVKDFACSFSGSIPLQEYFELIDHHFELRINGEKLEELLSERAVQFRAIQRRLLARFKDKTPAPLQHLDTLLDGTYKQVIALADAVEENQGNLFQSFTRLKSATHLVILLIALWQKLSADQVAILEAAFLPLQEDTQELGWEETVDAAISHLLKTCLSKSSKEQALNLNSQLNIPKDTSQLKKHITLLCDRLSKGGRLCLSTDAAAPQTMVMPGGCTTIPESDLEERSVEQDSTELFTNHRHLTAETPRPEVSPLQGVSE
partner: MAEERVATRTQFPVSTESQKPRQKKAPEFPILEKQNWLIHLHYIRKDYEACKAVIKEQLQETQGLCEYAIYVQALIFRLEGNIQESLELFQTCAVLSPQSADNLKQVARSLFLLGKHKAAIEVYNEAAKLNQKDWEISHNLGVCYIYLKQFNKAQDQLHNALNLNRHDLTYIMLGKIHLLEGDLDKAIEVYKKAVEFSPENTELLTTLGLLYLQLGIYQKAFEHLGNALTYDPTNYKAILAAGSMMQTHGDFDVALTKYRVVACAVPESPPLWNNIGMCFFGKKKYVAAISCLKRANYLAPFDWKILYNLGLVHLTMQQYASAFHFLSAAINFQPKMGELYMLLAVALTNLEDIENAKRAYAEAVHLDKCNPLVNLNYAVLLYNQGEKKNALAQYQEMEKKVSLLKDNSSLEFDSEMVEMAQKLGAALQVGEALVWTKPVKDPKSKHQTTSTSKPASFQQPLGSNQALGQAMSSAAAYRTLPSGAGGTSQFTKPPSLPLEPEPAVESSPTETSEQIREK

Variants of: B1
Conditions: with bbs4_human BBS4, Q96RK4

| Variant | effect of a mutation on the interaction |
| --- | --- |
| E604K | with no effect |
| E604A | with no effect |
| P641A | with no effect |
| S639A | with no effect |
| S639E | with no effect |
| S639K | with no effect |
| H651E | with no effect |
| H651A | with no effect |
| H651K | with no effect |
| H652E | with no effect |
| A633K | with no effect |
| D631K | with no effect |
| D631A | with no effect |
| Y623A | with no effect |
| L648A | with no effect |
| L648K | with no effect |
| I617E | with no effect |
| I617T | disrupting interaction strength |
| I617A | with no effect |
| E644A | with no effect |
| E644K | with no effect |
| I601A | with no effect |
| G638E | with no effect |
| T613E | with no effect |

| Variant | effect of a mutation on the interaction |
| --- | --- |
| T613I | disrupting interaction strength |
| T613A | with no effect |
| G628A | with no effect |
| G628K | with no effect |
| F606E | with no effect |
| F606A | with no effect |
| V629A | with no effect |
| V629I | disrupting interaction strength |
| D608E | with no effect |
| D608A | with no effect |
| S637E | with no effect |
| G659D | disrupting interaction strength |
| G659A | with no effect |
| E647K | disrupting interaction strength |
| E647G | disrupting interaction strength |
| E647A | with no effect |
| E622K | with no effect |
| E622A | with no effect |
| I657A | with no effect |
| I657E | with no effect |
| Y645K | with no effect |
| Y645A | with no effect |
| L618K | with no effect |
| L618A | with no effect |

| Variant | effect of a mutation on the interaction |
| --- | --- |
| L618E | with no effect |
| C634E | with no effect |
| E615K | with no effect |
| E615A | with no effect |
| N658A | with no effect |
| N658E | with no effect |
| E654A | disrupting interaction strength |
| W610A | with no effect |
| W610E | with no effect |
| F653A | with no effect |
| F653K | with no effect |
| F653E | with no effect |
| D650E | with no effect |
| Q621K | with no effect |
| R656K | with no effect |
| N614K | with no effect |
| L609K | with no effect |
| L609A | with no effect |
| L609E | with no effect |
| R600E | with no effect |
| R600A | with no effect |
| R600K | with no effect |
| Q643A | with no effect |
| I612E | with no effect |

| Variant | effect of a mutation on the interaction |
| --- | --- |
| E625A | with no effect |
| E625K | with no effect |
| S635A | with no effect |
| S635K | with no effect |
| S635E | with no effect |
| F624A | with no effect |
| F624K | with no effect |
| K626E | with no effect |
| F636K | with no effect |
| F636E | with no effect |
| I649E | with no effect |
| I649A | with no effect |
| F632A | with no effect |
| F632E | with no effect |
| S603N | disrupting interaction strength |
| S603A | with no effect |
| Q627K | with no effect |
| Q627A | with no effect |
| Q627E | with no effect |
| R619E | with no effect |
| L611F | disrupting interaction strength |
| L611K | with no effect |
| L611C | disrupting interaction strength |
| L611A | with no effect |

| Variant | effect of a mutation on the interaction |
| --- | --- |
| L616K | with no effect |
| L616P | disrupting interaction strength |
| L616E | with no effect |
| F646K | with no effect |
| E607K | with no effect |
| E607A | with no effect |
| Q605K | with no effect |
| L642E | with no effect |
| L642A | with no effect |
| Q602E | with no effect |
| Q602A | with no effect |
| L655K | with no effect |
| L655E | with no effect |
| L655A | with no effect |
| L620K | with no effect |
| L620A | with no effect |
| K630A | with no effect |
| K630E | with no effect |
| I640E | with no effect |
| I640A | with no effect |
| I640K | with no effect |

Next, values leading:

| effect of a mutation on the interaction | Variant |
| --- | --- |
| with no effect | P641K |
| with no effect | P641E |
| with no effect | H652K |
| with no effect | H652A |
| with no effect | A633E |
| with no effect | D631E |
| with no effect | Y623K |
| with no effect | Y623E |
| with no effect | L648E |
| with no effect | I617K |
| with no effect | I601K |
| with no effect | I601E |
| with no effect | G638A |
| with no effect | G638K |
| with no effect | T613K |
| with no effect | G628E |
| with no effect | F606K |
| with no effect | V629E |
| with no effect | V629K |
| with no effect | D608K |
| with no effect | S637A |
| with no effect | S637K |

| effect of a mutation on the interaction | Variant |
| --- | --- |
| with no effect | Y599K |
| with no effect | Y599E |
| with no effect | Y599A |
| with no effect | I657K |
| with no effect | Y645E |
| with no effect | C634A |
| with no effect | C634K |
| with no effect | N658K |
| disrupting interaction strength | E654K |
| with no effect | W610K |
| with no effect | D650K |
| with no effect | D650A |
| with no effect | Q621E |
| with no effect | Q621A |
| with no effect | R656A |
| with no effect | R656E |
| with no effect | N614E |
| with no effect | N614A |
| disrupting interaction strength | R600G |
| with no effect | Q643K |
| with no effect | Q643E |
| with no effect | I612K |

| effect of a mutation on the interaction | Variant |
| --- | --- |
| with no effect | I612A |
| with no effect | F624E |
| with no effect | K626A |
| with no effect | F636A |
| with no effect | I649K |
| with no effect | F632K |
| with no effect | S603E |
| with no effect | S603K |
| with no effect | R619A |
| with no effect | R619K |
| with no effect | L611E |
| with no effect | L616A |
| with no effect | F646E |
| with no effect | F646A |
| with no effect | Q605A |
| with no effect | Q605E |
| with no effect | L642K |
| with no effect | Q602K |
| disrupting interaction strength | L620P |
| with no effect | L620E |
